Test [1] concerns the target T1, linear HER2 peptide immunogen H-CPLHNQEVTAEDGTQR-NH2 coupled to KLH (also: coupled to KLH).
T1 construct: Synthetic peptide; also called linear peptide; KLH-linear peptide
T1 peptide: H-CPLHNQEVTAEDGTQR-NH2
The test is described as follows: ELISA, antigen on the plate, antibody at 10 ug/mL, anti-mouse Ig-alkaline phosphatase, pNPP, A405nm. The protocol:
(§1) Polystyrene 96-well plates were coated with 3% FCS in PBS for one hour at RT. A final peptide concentration of 1 mg/mL was achieved by diluting the peptide in 0.1% acetic acid. This peptide solution was further diluted to 30 μg/ml in 3% FCS-PBS. Plates were incubated with the linear or cyclic peptide immunogen coupled to KLH, HER2-ECD or negative control peptide-KLH, in dilution buffer (3% FCS-PBS) for one hour at RT. […] Following washing, plates were then incubated with anti-mouse Ig-Alkaline phosphatase (Sigma A-3688), (1:3000 dilutions) for one hour at RT.
(In general: In an ELISA, binding on a coated surface is turned into a signal by an enzyme label.)

For test [2], the target named is T2, cyclic HER2 peptide immunogen H-GCPLHNQEVTAEDGTQRC-NH2 coupled to KLH (human, disulfide 2-18 (inferred); also: coupled to KLH).
T2 construct: also called cyclised peptide; circularised peptide
T2 peptide: H-GCPLHNQEVTAEDGTQRC-NH2
Described as above. The procedure: as §1

Test [3] deals with T3, recombinant ErbB3/HER3 ECD (UniProt P21860 20-643, limits assumed).
T3 construct: extracellular domain; also called ErbB3 ECD
The test is described as follows: ELISA, plate coated with recombinant HER3 ECD, anti-mouse antibody-alkaline phosphatase, pNPP, A405 nm. The protocol: (§2) Polystyrene 96-well plates were coated with […], 3 μg/mL recombinant ErbB2 ECD, ErbB3 ECD, ErbB4 ECD or EGFR501 in PBS overnight at 4° C. The plates were blocked with 3% FCS in PBS for one hour at room temperature (RT). Plates were incubated with 10 μg/mL serially diluted purified antibody along with appropriate controls for one hour at RT. Following washing three times, plates were incubated with anti-mouse IgG AP conjugate (1:2000 dilutions) for one hour at RT.

Test [4] deals with T4, control irrelevant peptide H-LEEKKGNYVVTDHC-NH2 coupled to KLH (also: coupled to KLH).
T4 construct: Synthetic negative control; also called control peptide; negative control peptide-KLH
T4 peptide: H-LEEKKGNYVVTDHC-NH2
The test is described as follows: ELISA, antigen on the plate, anti-mouse Ig-alkaline phosphatase, pNPP, A405nm. The procedure:
as §1

Test [5] deals with T5, recombinant ErbB4/HER4 ECD (UniProt Q15303 26-651, limits assumed).
T5 construct: extracellular domain; also called ErbB4 ECD
T5 sequence (looked up): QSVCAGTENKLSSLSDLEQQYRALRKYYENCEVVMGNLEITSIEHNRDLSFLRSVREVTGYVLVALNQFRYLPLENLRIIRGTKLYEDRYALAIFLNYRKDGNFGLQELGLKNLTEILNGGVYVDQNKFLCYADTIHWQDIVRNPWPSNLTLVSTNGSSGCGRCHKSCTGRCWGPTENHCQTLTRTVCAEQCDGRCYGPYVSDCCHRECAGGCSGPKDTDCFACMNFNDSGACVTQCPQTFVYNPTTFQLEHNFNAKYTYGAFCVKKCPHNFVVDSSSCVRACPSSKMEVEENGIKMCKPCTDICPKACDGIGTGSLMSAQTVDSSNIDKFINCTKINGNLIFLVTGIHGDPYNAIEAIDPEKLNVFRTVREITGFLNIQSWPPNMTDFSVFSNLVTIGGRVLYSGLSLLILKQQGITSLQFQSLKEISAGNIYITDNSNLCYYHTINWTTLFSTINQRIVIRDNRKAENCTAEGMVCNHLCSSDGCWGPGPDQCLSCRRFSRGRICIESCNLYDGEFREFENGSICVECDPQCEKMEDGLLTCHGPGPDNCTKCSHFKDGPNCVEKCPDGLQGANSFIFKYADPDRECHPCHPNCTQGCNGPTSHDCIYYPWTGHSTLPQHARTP
The test is described as follows: ELISA, plate coated with recombinant HER4 ECD, anti-mouse antibody-alkaline phosphatase, pNPP, A405 nm. The protocol:
as §2

Test [6] concerns the target T6, recombinant sEGFR ectodomain (EGFR501) (UniProt P00533 25-645, limits assumed).
T6 construct: extracellular domain; also called EGFR/HER1 ectodomain
The test is described as follows: ELISA, plate coated with recombinant sEGFR ectodomain, anti-mouse antibody-alkaline phosphatase, pNPP, A405 nm. The procedure:
as §2

Bridges are numbered along the chain shown (N, C = ends).

B1: mAb104 (antibody, IgG1, V domains shown)
VH: EVQLQQSGPELVKPGASVKISCKASGYSFTGYFMHWVRQSHVRSLEWIGRINPYNGDIRYNQNFKDKASLTVDKSSSTAYMELHRLTSEDSAVFYCASLNFAYWGQGTPVTVSA
VL: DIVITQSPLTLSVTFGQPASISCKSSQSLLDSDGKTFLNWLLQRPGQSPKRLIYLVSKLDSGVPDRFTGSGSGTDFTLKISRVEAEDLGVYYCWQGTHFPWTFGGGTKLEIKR
notes: Murine monoclonal purified from hybridoma supernatant
Take B1: the binding result in test [1] is reported as “binds”; in test [2], “binds”; in test [3] it was “no binding (tested: 10000 ng/ml)”; in test [4], “no binding (tested: 10 ug/mL)”; in test [5] it was “no binding (tested: 10000 ng/ml)”; in test [6], “no binding (tested: 10000 ng/ml)”.

B2: mAb106 (antibody, IgG1, V domains shown)
VH: QIQLVQSGPELKKPGETVKISCKASGYTFTDYGMNWVKQAPGKGLKWMGWINTYTGKPTYDDDFKGRFAFSLETSASTAYLQINNLKNEDMATYFCARRFLNTVAGRSVYFDYWGQGTTLTVSS
VL: QIVLTQSPALMSVSPGEKVTMTCSVSSSVGSMYWYQQKPRSSPKPWIYLTSNLASGVPPRFSGSGSGTSYSLTISSMEGEDAATYYCQQWSSNPPTFGAGTKLELKR
notes: as for B1
Regarding B2, the binding result in test [1] is “binds”; in test [2], “binds”; in test [4], “no binding (tested: 10 ug/mL)”.

The record behind these values is US20220169747A1 (CERTIS THERAPEUTICS, published 2022).
